Measured values reported in PMC8429977, “Phosphorylation of slit diaphragm proteins NEPHRIN and NEPH1 upon binding of HGF promotes podocyte repair” (The Journal of Biological Chemistry, 2021).
Values belong to the binder of their own block, whether it stands above or below them.

Molecular target: T1, purified human recombinant HGF (human, UniProt P14210 32-728)
T1 construct: hepatocyte growth factor, human, recombinant, purified; also called hepatocyte growth factor; recombinant human active HGF; source: bought: Sigma
T1 sequence (P14210 32-728): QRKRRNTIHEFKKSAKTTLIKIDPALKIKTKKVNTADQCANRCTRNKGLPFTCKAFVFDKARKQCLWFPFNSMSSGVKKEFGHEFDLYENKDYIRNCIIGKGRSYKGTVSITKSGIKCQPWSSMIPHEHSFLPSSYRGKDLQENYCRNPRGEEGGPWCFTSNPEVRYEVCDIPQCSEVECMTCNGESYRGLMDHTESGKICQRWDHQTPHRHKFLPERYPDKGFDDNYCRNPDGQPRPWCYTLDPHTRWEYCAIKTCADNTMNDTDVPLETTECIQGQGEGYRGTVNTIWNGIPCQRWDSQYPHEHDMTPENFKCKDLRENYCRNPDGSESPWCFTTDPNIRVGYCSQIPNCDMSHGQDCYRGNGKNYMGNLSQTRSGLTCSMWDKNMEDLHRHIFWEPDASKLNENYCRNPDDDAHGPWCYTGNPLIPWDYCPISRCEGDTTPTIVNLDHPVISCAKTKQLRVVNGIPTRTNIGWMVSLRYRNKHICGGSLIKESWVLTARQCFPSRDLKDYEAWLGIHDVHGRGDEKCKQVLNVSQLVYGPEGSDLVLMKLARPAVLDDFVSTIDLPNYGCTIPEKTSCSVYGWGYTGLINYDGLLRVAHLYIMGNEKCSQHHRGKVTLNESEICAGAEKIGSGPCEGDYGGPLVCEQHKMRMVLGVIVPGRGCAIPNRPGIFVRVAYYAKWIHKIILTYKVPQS
Assay: far-Western, overlay or dot blot; 300 ng peptide spotted on nitrocellulose, blocked with fat-free milk, incubated with 1 μg recombinant purified HGF in 5% BSA in PBS at 4 °C, detected with anti-HGF antibody
Conditions: both partners purified

binding result: binds
B1: NEPH1 Peptide-1 (peptide)
peptide: QEGERVVFTCQATANPEIL
notes: also called NEPH-P1; NEPH1-P1; source: synthetic peptide (Fmoc solid phase, HPLC purified)

binding result: binds
B2: NEPHRIN Peptide-1 (peptide)
peptide: PDITILLSGQTISDISANVNEGSQQKL
notes: also called NEPHRIN-P1; NEPHRIN P1; source: synthetic peptide (Fmoc solid phase, HPLC purified)
